Reference: paper PMC4619609

Columns and labels:
Experiment in all cases: ELISA
[1] = molecular target: recombinant CD4-IgG2 protein (UniProt P01730); settings: 10 µg/ml; gp120s from virus lysates; parent: est. 3.7; read off a plot
[2] = molecular target: mAb 2219 (V3); settings: mAbs (10 µg/ml); gp120s from virus lysates; parent: est. 2.2; read off a plot
[3] = molecular target: mAb 1418 (Ctrl); settings: mAbs (10 µg/ml); gp120s from virus lysates; parent: est. 0.21; read off a plot
[4] = molecular target: mAb 1357 (V2i); settings: mAbs (10 µg/ml), gp120s from virus lysates
[5] = molecular target: mAb 830A (V2i); settings: mAbs (10 µg/ml); gp120s from virus lysates; parent: est. 2.1; read off a plot
[6] = molecular target: mAb 1361 (V2i); settings: mAbs (10 µg/ml); gp120s from virus lysates; parent: est. 2.8; read off a plot
[7] = molecular target: mAb 1393A (V2i); settings: mAbs (10 µg/ml); gp120s from virus lysates; parent: est. 2.2; read off a plot
[8] = molecular target: mAb 1331 (CD4bs); settings: mAbs (10 µg/ml); gp120s from virus lysates; parent: est. 2.0; read off a plot
[9] = molecular target: mAb 2158 (V2i); settings: mAbs (10 µg/ml); gp120s from virus lysates; parent: est. 2.0; read off a plot

gp120 of ZM109 WT R153E
response [1]: 3.6 OD 405nm | response [2]: 2.6 OD 405nm | response [3]: 0.17 OD 405nm | ratio to parent [4]: 3 x | response ([4]; parent: est. 0.46, read off a plot): 1.5 OD 405nm | response [5]: 2 OD 405nm | response [6]: 2.3 OD 405nm | response [7]: 2.4 OD 405nm | response [8]: 1.9 OD 405nm | response [9]: 1.7 OD 405nm
